{"source": "patent US20160303183A1", "about": "(WUHAN YICHENG BIOTECH, published 2016)", "target": "T1, proliferating cell nuclear antigen (PCNA) (human, UniProt P12004 1-261)", "T1 construct": "Endogenous intracellular protein, immunoprecipitated from HT29 cell lysate", "T1 sequence (P12004 whole entry)": "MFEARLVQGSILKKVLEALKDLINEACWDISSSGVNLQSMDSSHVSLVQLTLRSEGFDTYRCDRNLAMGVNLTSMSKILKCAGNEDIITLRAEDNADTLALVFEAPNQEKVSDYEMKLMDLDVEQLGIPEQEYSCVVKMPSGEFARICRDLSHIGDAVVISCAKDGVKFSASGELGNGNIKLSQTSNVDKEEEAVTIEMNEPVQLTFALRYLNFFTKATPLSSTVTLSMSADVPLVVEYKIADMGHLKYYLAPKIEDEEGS", "test": "not described"}
{"binder": "MPYSTELIFYIEMDP (15-residue polypeptide fragment)", "note": "[polypeptide P15]", "values": [{"measurement": "binding result", "result": "binds"}]}
